Like-named read-outs stand apart in the source and are kept apart here.

The nature of experiment [1]: UV-VIS screening of binding and demetallation of Ni(II)-protoporphyrin (IX). It counts as biochemical. The settings on record: 50 μM porphyrin, 24 hrs, room temperature. As for the experimental part: (§1) Three nickel- and one vanadium-containing model porphyrins (Ni(II)-protoporphyrin (IX); Ni(II)-meso-tetra-(4-carboxyphenyl) porphine; Ni(II)-meso-tetra-(N-methyl-4-pyridyl) porphine tetrachloride; & VO-meso-tetra-(N-methyl-4-pyridyl) porphine tetrachloride) were chosen as test substrates for the eight representative NBPs. […] The proteins' nickel- and vanadium-binding capabilities were assayed in a single phase, aqueous environment to eliminate mass transfer limitations that occur between multiple phases and stressful non-aqueous to conditions that may change protein structure and/or inhibit function. This approach minimizes false-negative results to maximize the number of potential protein candidates that can be identified.
A shift in the wavelength of maximal absorbance, commonly referred to as the “Soret band,” indicates a change in porphyrin conformation or a protein-porphyrin interaction.
(§2) To prepare crude protein, aliquots were thawed on ice and diluted 4-fold with protein assay buffer (PAB). To isolate purified nickel-binding proteins, protein aliquots were thawed on ice and proteins of interest were purified by HIS-tag-Ni-NTA column affinity followed by size exclusion chromatography with PD-10 desalting columns. Purified protein was eluted in PAB, collected in the first 2 mL PD-10 column flow-through fraction. Relative to the initial protein concentration, samples were diluted 4-fold to parallel crude protein samples.
(§3) Amber tubes were used for all assays to protect samples from light. Crude and purified protein samples were combined with porphyrin substrates, to achieve final concentrations in Table 3, and total assay volumes were raised to 10 mL with Tris buffer. Absorbance of a 2.4 mL sample was measured in a 1 cm quartz cuvette, at room temperature, 1 nm resolution, and 0.7 sec. integration time on an Evolution201® UV-VIS spectrophotometer with Thermo INSIGHT® software. Samples were incubated for 24 hrs. at room temperature and 75 RPM and their final UV-VIS absorbance spectra was measured. An absorbance baseline was collected using Tris buffer at the beginning of each time point and 1% error was observed between technical replicates.
(§4) Porphyrin Demetallation Calculation was calculated according to the formula (EVf−EXPf)÷EVo=% specific demetallation.

Experiment [2] in a line: UV-VIS screening of binding and demetallation of Ni(II)-meso-tetra-(4-carboxyphenyl) porphine. In kind it is biochemical. The settings on record: 10 μM porphyrin, 24 hrs. As for the experimental part: as §1
UV-VIS spectroscopy was used for initial screening of protein activity against numerous model compounds because each model porphyrin has a characteristic UV-VIS absorbance spectrum. A shift in the wavelength of maximal absorbance, commonly referred to as the “Soret band,” indicates a change in porphyrin conformation or a protein-porphyrin interaction.
as §2
as §3, with “replicates. Crude, empty pET28b vector (EV) strain lysate protein and PAB only controls were run in parallel with experimental samples (EXP) for each porphyrin.” for “replicates.”
as §4

The conditions of experiment [3]: cited from earlier work.
For experiment [4] the following is noted: selective, repetitive treatment; cited from earlier work.
Experiment [5] in a line: UV-VIS screening of binding and demetallation of Ni(II)-meso-tetra-(N-methyl-4-pyridyl) porphine tetrachloride. In kind it is biochemical. The settings on record: crude and purified protein, 10 μM porphyrin, 24 hrs. The method, then: as §1, with “This approach minimizes false-negative results to maximize the number of potential protein candidates that can be identified.” left out
(§5) UV-VIS spectroscopy was used for initial screening of protein activity against numerous model compounds because each model porphyrin has a characteristic UV-VIS absorbance spectrum. A shift in the wavelength of maximal absorbance, commonly referred to as the “Soret band,” indicates a change in porphyrin conformation or a protein-porphyrin interaction. […]
(§6) Amber tubes were used for all assays to protect samples from light. […] Absorbance of a 2.4 mL sample was measured in a 1 cm quartz cuvette, at room temperature, 1 nm resolution, and 0.7 sec. integration time on an Evolution201® UV-VIS spectrophotometer with Thermo INSIGHT® software. Samples were incubated for 24 hrs. at room temperature and 75 RPM and their final UV-VIS absorbance spectra was measured. […]

Experiment [6] is described as follows: UV-VIS screening of binding and demetallation of VO-meso-tetra-(N-methyl-4-pyridyl) porphine tetrachloride. It counts as biochemical. The settings on record: crude and purified protein, 10 μM porphyrin, 24 hrs. The method, then: as §1, with “This approach minimizes false-negative results to maximize the number of potential protein candidates that can be identified.” left out
as §5, §6

[7] abbreviates: site (24-His rich N-terminus; His2 and Glu2; micromolar Kd sites).

Take “Hpn: nickel storage protein from H. pylori, SEQ ID NO 8; very small, histidine rich (MAHHEEQHGGHHHHHHHTHHHHYHGGEHHHHHHSSHHEEGCCSTSDSHHQEEGCCHGHHE; listed as Helicobacter pylori)”: in experiment [1] (crude protein lysate), the “reduction of Ni(II)-protoporphyrin (IX) Soret band (specific demetallation)” value (“reduction of Ni(II)-protoporphyrin” for short) is reported as “did not affect the Soret band”. In addition, the “binding / demetallation (change of Soret band)” value in experiment [2] (crude lysate only) is recorded as “did not affect the Soret band”. Also, in experiment [3] (short repeating motifs, reversible binding), the “affinities for nickel (II) ions” value was “micromolar”.

B1: UreE: nickel chaperone from E. aerogenes, SEQ ID NO 5 (protein)
chain: MLYLTQRLEIPAAATASVTLPIDVRVKSRVKVTLNDGRDAGLLLPRGLLLRGGDVLSNEEGTEFVQVIAADEEVSVVRCDDPFMLAKACYHLGNRHVPLQIMPGELRYHHDHVLDDMLRQFGLTVTFGQLPFEPEAGAYASESHGHHHAHHDHHAHSH
modifications: Enterobacter aerogenes
Consider B1, for which the “reduction of Ni(II)-protoporphyrin” value in experiment [1] (crude protein lysate) is given as “remained unchanged”; in experiment [1] (purified protein), 17%. The “binding / demetallation (change of Soret band)” value in experiment [2] (crude and purified protein) is reported as “Neither binding nor demetallation”. The “Ni-binding: Ni (II) ions bound” value in experiment [3] (per dimer) is 6 Ni (II) per Ni (II) per dimer.

B2: GloA: nickel metalloenzyme from E. coli, SEQ ID NO 6 (protein, listed as Helicobacter pylori)
chain: MDTPNKDDSIIRFSVSLQQNLLDELDNRIIKNGYSSRSELVRDMIREKLVEDNWAEDNPNDGSKIAVLVVIYDHHQRELNQRMIDIQHTSGTHVLCTTHIHMDGHNCLETIILKGNSLEIQRLQLEIGGLRGVKFAKLTKASSFEHNE
Take B2: the “reduction of Ni(II)-protoporphyrin” value was “little or no binding and demetallation” in experiment [1] (crude protein lysate); “little or no binding and demetallation” in experiment [1] (purified protein). For the same molecule, the “binding / demetallation (change of Soret band)” value in experiment [2] (crude and purified protein) was “little or no binding and demetallation”. In addition, the “Ni-binding: Ni (II) ions bound” value in experiment [3] (setting [7]) is reported as 2 Ni (II),.

B3: myoglobin conjugated to activated cellulose: myoglobin conjugated to activated cellulose, reported by Smith et al. (conjugate, UniProt P68082 2-154, looked up)
Myoglobin: GLSDGEWQQVLNVWGKVEADIAGHGQEVLIRLFTGHPETLEKFDKFKHLKTEAEMKASEDLKKHGTVVLTALGGILKKKGHHEAELKPLAQSHATKHKIPIKYLEFISDAIIHVLHSKHPGDFGADAQGAMTKALELFRNDIAAKYKELGFQG
modifications: conjugated to activated cellulose
For the molecule B3, the “removal of V, Ni porphyrins” value in experiment [4] was “up to 22%”.

B4: SlyD: nickel chaperone from E. coli, SEQ ID NO 4 (protein, listed as Escherichia coli)
chain: MKVAKDLVVSLAYQVRTEDGVLVDESPVSAPLDYLHGHGSLISGLETALEGHEVGDKFDVAVGANDAYGQYDENLVQRVPKDVFMGVDELQVGMRFLAETDQGPVPVEITAVEDDHVVVDGNHMLAGQNLKFNVEVVAIREATEEELAHGHVHGAHDHHHDHDHDGCCGGHGHDHGHEHGGEGCCGGKGNGGCGCH
As for B4, the “reduction of Ni(II)-protoporphyrin” value is reported as 12% in experiment [1] (crude protein lysate) and “no change was observed” in experiment [1] (purified protein). The “binding / demetallation (change of Soret band)” value in experiment [2] (crude and purified protein) is on record as “only minimal changes to the Soret band were observed”. Moreover, the “Kd of Ni-binding” value in experiment [3] (C-terminal metal-binding domain (MBD)) was “nanomolar Kd”.

B5: NikR: metalloregulator from H. pylori, SEQ ID NO 7 (protein, listed as Escherichia coli)
chain: MRLLHTMLRVGDLQRSIDFYTKVLGMKLLRTSENPEYKYSLAFVGYGPETEEAVIELTYNWGVDKYELGTAYGHIALSVDNAAEACEKIRQNGGNVTREAGPVKGGTTVIAFVEDPDGYKIELIEEKDAGRGLGN
Turning to B5, the figures for the “reduction of Ni(II)-protoporphyrin” value in experiment [1] (crude protein lysate) and in experiment [1] (purified protein) were “remained unchanged” and 56%, respectively. Moreover, the “binding / demetallation (change of Soret band)” value in experiment [2] (crude and purified protein) was “Neither binding to nor demetallation was observed”. Moreover, the “Kd of Ni-binding” value in experiment [3] (4 Ni (II) per complex, coordinated by His88, His99, His101 & Cys107) was “nanomolar Kd”; in experiment [3] (up to 10 Ni (II) sites) it was “micromolar Kd”. Moreover, the “Ni-binding: Ni (II) ions bound” value in experiment [3] (per complex, nanomolar Kd sites) is 4 Ni (II) per Ni (II) per complex.

B6: HypA: nickel chaperone from H. pylori, SEQ ID NO 1, His-tagged, expressed in E. coli (protein, listed as Bradyrhizobium japonicum)
chain: MCTVCGCSDGKASIEHAHDHHHDHGHDHDHGHDGHHHHHHGHDQDHHHHHDHAHGDAGLLDCGANPAGQKITGMSSDRIIQVERDILGKNDRLAADNRARFRADEVLAFNLVSSPGAGKTSLLVRAVSELKDSFAIGVIEGDQQTSNDAERIRATGVPAIQVNTGKGCHLDAAMVGEAYDRLPWLNGGLLFIENVGNLVCPAAFDLGEACKIVVFSTTEGEDKPLKYPDMFAASSLMLINKIDLASVLDFDLARTIEYARRVNPKIEVLTLSARTGEGFAAFYAWIRKRMAATTPAAMTAAE
modifications: His-tag
For the molecule B6, the “reduction of Ni(II)-protoporphyrin” value in experiment [1] (crude protein lysate) is reported as “did not display Ni(II)-protoporphyrin (IX) binding or demetallation capabilities”; in experiment [1] (purified protein), 59%. Also, the “binding / demetallation (change of Soret band)” value in experiment [2] (crude and purified protein) is given as “neither binding nor demetallation was observed”. In experiment [3] (per dimer), the “Ni-binding: Ni (II) ions bound” value is listed as 2 Ni (II) ions per Ni (II) per dimer.

B7: E. coli HypB: nickel chaperone HypB from E. coli, SEQ ID NO 2 (protein, listed as Escherichia coli)
chain: MCTTCGCGEGNLYIEGDEHNPHSAFRSAPFAPAARPKMKITGIKAPEFTPSQTEEGDLHYGHGEAGTHAPGMSQRRMLEVEIDVLDKNNRLAERNRARFAARKQLVLNLVSSPGSGKTTLLTETLMRLKDSVPCAVIEGDQQTVNDAARIRATGTPAIQVNTGKGCHLDAQMIADAAPRLPLDDNGILFIENVGNLVCPASFDLGEKHKVAVLSVTEGEDKPLKYPHMFAAASLMLLNKVDLLPYLNFDVEKCIACAREVNPEIEIILISATSGEGMDQWLNWLETQRCA
Regarding B7, the “reduction of Ni(II)-protoporphyrin” value in experiment [1] (crude protein lysate) stood at 17%; in experiment [1] (purified protein), 83%. The “binding / demetallation (change of Soret band)” value in experiment [2] (crude and purified protein) was “Neither binding nor demetallation was observed”. In addition, the entries for the “Kd of Ni-binding” value in experiment [3] (N-terminal Ni binding domain) and in experiment [3] (SEQ ID NO: 12 binding sites in the C-terminal domain) were “has micromolar” and “subpicomolar”, respectively. Also, the “Ni-binding: Ni (II) ions bound” value in experiment [3] (per monomer) is recorded as 2 Ni (II) ions per Ni (II) per monomer.

B8: B. japonicum HypB: nickel chaperone HypB from B. japonicum, SEQ ID NO 3 (protein, listed as Helicobacter pylori)
chain: MHEYSVVSSLIALCEEHAKKNQAHKIERVVVGIGERSAMDKSLFVSAFETFREESLVCKDAVLDIVDEKVELECKDCSHVFKPNALDYGVCEKCHSKNVVITQGNEMRLLSLEMLAE
With B8, the “reduction of Ni(II)-protoporphyrin” value worked out at 29% in experiment [1] (crude protein lysate) and 99% in experiment [1] (purified protein). Moreover, the “binding / demetallation (change of Soret band)” value in experiment [2] (crude and purified protein) is recorded as “Neither binding nor demetallation was observed”; in experiment [5] it was “Neither binding to nor demetallation of these substrates was observed”; in experiment [6] it was “Neither binding to nor demetallation of these substrates was observed”. Also, the “Ni-binding: Ni (II) ions bound” value in experiment [3] (setting [7]) is given as 9 Ni (II) on 24-.
